Experiments:
Assay in all cases: cell-based or functional assay
[1] = target: TGFβ1 (human, UniProt P01137 279-390)
[2] = target: T1, TGFβ2 (human, UniProt P61812 303-414)
T1 sequence (looked up): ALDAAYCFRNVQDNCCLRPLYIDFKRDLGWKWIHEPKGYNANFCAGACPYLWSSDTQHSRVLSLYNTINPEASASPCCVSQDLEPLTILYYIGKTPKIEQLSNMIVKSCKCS

[3] = target: T2, TGFβ3 (human, UniProt P10600 301-412)
T2 sequence (looked up): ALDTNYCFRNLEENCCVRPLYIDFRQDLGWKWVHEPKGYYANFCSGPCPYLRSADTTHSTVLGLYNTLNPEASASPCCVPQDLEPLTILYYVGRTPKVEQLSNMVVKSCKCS

TGFβ1, sequence (P01137 279-390 limits assumed): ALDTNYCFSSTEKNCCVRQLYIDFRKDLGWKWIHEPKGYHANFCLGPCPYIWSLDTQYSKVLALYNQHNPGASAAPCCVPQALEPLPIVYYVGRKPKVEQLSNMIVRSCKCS

B1: TGFβRIISHORT-Fc:ALK5-Fc heterodimer (Fc fusion)
chain 1: TIPPHVQKSVNNDMIVTDNNGAVKFPQLCKFCDVRFSTCDNQKSCMSNCSITSICEKPQEVCVAVWRKNDENITLETVCHDPKLPYHDFILEDAASPKCIMKEKKKPGETFFMCSCSSDECNDNIIFSEEYNTSNPDTGGGTHTCPPCPAPELLGGPSVFLFPPKPKDTLMISRTPEVTCVVVDVSHEDPEVKFNWYVDGVEVHNAKTKPREEQYNSTYRVVSVLTVLHQDWLNGKEYKCKVSNKALPAPIEKTISKAKGQPREPQVYTLPPSRKEMTKNQVSLTCLVKGFYPSDIAVEWESNGQPENNYKTTPPVLKSDGSFFLYSKLTVDKSRWQQGNVFSCSVMHEALHNHYTQKSLSLSPGK
chain 2: ALLPGATALQCFCHLCTKDNFTCVTDGLCFVSVTETTDKVIHNSMCIAEIDLIPRDRPFVCAPSSKTGSVTTTYCCNQDHCNKIELPTTVKSSPGLGPVETGGGTHTCPPCPAPELLGGPSVFLFPPKPKDTLMISRTPEVTCVVVDVSHEDPEVKFNWYVDGVEVHNAKTKPREEQYNSTYRVVSVLTVLHQDWLNGKEYKCKVSNKALPAPIEKTISKAKGQPREPQVYTLPPSREEMTKNQVSLTCLVKGFYPSDIAVEWESNGQPENNYDTTPPVLDSDGSFFLYSDLTVDKSRWQQGNVFSCSVMHEALHNHYTQKSLSLSPG
B1 was tested, and the “IC50 (pM), inhibition of TGFβ1 (640 pg/mL), CAGA12-luciferase reporter in A549 cells” value [1] was under 350 pM, the “IC50 (pM), inhibition of TGFβ2 (480 pg/mL), CAGA12-luciferase reporter in A549 cells” value [2] was about 200 pM and the “IC50 (pM), inhibition of TGFβ3 (270 pg/mL), CAGA12-luciferase reporter in A549 cells” value [3] was under 90 pM.

B2: TGFβRIILONG-Fc:ALK5-Fc heterodimer (Fc fusion)
chain 1: TIPPHVQKSDVEMEAQKDEIICPSCNRTAHPLRHINNDMIVTDNNGAVKFPQLCKFCDVRFSTCDNQKSCMSNCSITSICEKPQEVCVAVWRKNDENITLETVCHDPKLPYHDFILEDAASPKCIMKEKKKPGETFFMCSCSSDECNDNIIFSEEYNTSNPDTGGGTHTCPPCPAPELLGGPSVFLFPPKPKDTLMISRTPEVTCVVVDVSHEDPEVKFNWYVDGVEVHNAKTKPREEQYNSTYRVVSVLTVLHQDWLNGKEYKCKVSNKALPAPIEKTISKAKGQPREPQVYTLPPSRKEMTKNQVSLTCLVKGFYPSDIAVEWESNGQPENNYKTTPPVLKSDGSFFLYSKLTVDKSRWQQGNVFSCSVMHEALHNHYTQKSLSLSPGK
chain 2: B1 chain 2
B2 was tested, and the “IC50 (pM), inhibition of TGFβ1 (640 pg/mL), CAGA12-luciferase reporter in A549 cells” value [1] was 204 pM, the “IC50 (pM), inhibition of TGFβ2 (480 pg/mL), CAGA12-luciferase reporter in A549 cells” value [2] was 154 pM and the “IC50 (pM), inhibition of TGFβ3 (270 pg/mL), CAGA12-luciferase reporter in A549 cells” value [3] was 35 pM.

— patent US20210147508A1 (ACCELERON PHARMA, published 2021)
